According to the supplement of paper PMC12042874:
± gives the uncertainty stated by the source.

Assay: amyloid nucleation score (Sup35N fusion, yeast selection) (log enrichment); library NNK1; higher = more nucleation; inactive = no reads after selection
Method in brief: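 In psi-negative yeast, Sup35N fusions carrying peptides of 20 random codons were induced with 100 μM copper sulfate for 24 hours. The cells then grew 7 days at 30°C on medium lacking adenine and uracil, and plasmid inserts from input and output were Illumina-sequenced, excluding sequences with under 100 input reads. Nucleation score is the DiMSum log enrichment of output over input reads, centred on the mode score of non-aggregating sequences.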

In order of rising amyloid nucleation score:
1. LLRWLFCFEWHDSNMSTNII  -1.76 ± 2.4
2. LFLFLRMLTFVTCLIMRLRV  -1.73 ± 2.4
3. LFVSNMC  -1.47 ± 0.91
4. LDLNRFDPWVVTSLLCFPVA  -1.42 ± 1.5
5. LLVKNHMRSQEWPLKNSLTN  -1.24 ± 2.4
6. KWQEQGVIFSNFLLHRHWDV  -1.23 ± 1.6
7. LINKNSSSAFCVMLGHYWVR  -1.03 ± 0.66
8. LAWTSRDWRKFEYIMGIWGI  -1.01 ± 2.4
9. LAGMMHAPVVLGLWSCDGDG  -0.974 ± 2.4
10. KYSLNM  -0.872 ± 1.4
11. LFRSRRLVCDMKFHWTFLYR  -0.853 ± 0.5
12. LILRLVHKLGLCVPLSGSRG  -0.827 ± 1.7
13. LMEIFLNLPPANKNSYNRR  -0.766 ± 2.4
14. LARDRFTYLAASYPFTPSRA  -0.761 ± 1.7
15. LIELRIWLLHLPMYGVLESI  -0.758 ± 0.39
16. LLWRVSPSTLTSAIFKCLHS  -0.741 ± 0.86
17. LAWMWYQGVSLRNKGGGMFY  -0.659 ± 1
18. LKYPMGFPDRSL  -0.658 ± 1.1
19. LDDWRVMLVSANMHHVRC  -0.642 ± 0.39
20. LESRFRKMFPRVVRDTWGRG  -0.628 ± 1.7
21. LKYTVPGLISPGFLGVVDYV  -0.624 ± 0.34
22. LKNTVHWTADHFRVTSP  -0.623 ± 0.67
23. LGTCPYSPPEANN  -0.604 ± 0.5
24. LEINIVACVDTA  -0.559 ± 0.36
25. LARLLNGQVGNDYCPGVPGG  -0.543 ± 0.4
26. LEGKPSEFYRNFHIYGVVYQ  -0.531 ± 1.4
27. LKLYINIIVVNYNLLSICSH  -0.504 ± 0.24
28. LAFDYLLKFLDCR  -0.47 ± 0.53
29. LLRVTEYLIIRPCSVFVINR  -0.459 ± 0.36
30. LFASESRWSRRYMFPWCRLC  -0.445 ± 0.91
31. LFVVFHALTIFYP  -0.437 ± 1.2
32. LLVVRLNVCRRHMDFKYG  -0.419 ± 0.39
33. LIIRVWLKNQPDTLGKRRRE  -0.415 ± 1.4
34. KVPYLVDYISLVFFVFKVLF  -0.388 ± 0.34
35. LGATGIGVYTVGHTFKS  -0.382 ± 0.44
36. LKSSSCHQTSISHRALFCNL  -0.373 ± 1.2
37. LICAAAKLIHGWGNKWIYVT  -0.368 ± 1.7
38. LEWANDLVNCSQRIM  -0.331 ± 0.88
39. LIDRCWMAGRAFNLLMF  -0.331 ± 0.76
40. LMQSCWSFHYNRLASLLRHT  -0.316 ± 0.88
41. LIKRVQLFV  -0.284 ± 0.4
42. LISLLGSISMGPCIVRVYN  -0.259 ± 0.48
43. LMLRLRVLPVA  -0.234 ± 0.26
44. KVIRVYRADCCFTGWHFAVA  -0.224 ± 0.77
45. LGWRSTFCMKYTSQSLSLPR  -0.221 ± 0.58
46. LCRVVGYRSPHWQVRGLSVV  -0.215 ± 1.7
47. LMRDSCHDQQVLGCFYMSKL  -0.215 ± 1.2
48. LLSQVTCGMQTVRRNGGIIR  -0.195 ± 0.65
49. LCELNSKAVYGSKMAHCYSS  -0.151 ± 0.33
50. LEYSS  -0.145 ± 0.41
51. LCVSCARVKLLNRT  -0.144 ± 0.55
52. LMISGPYWR  -0.142 ± 0.56
53. LKFNAP  -0.14 ± 1.4
54. LHRALGQSSWWARQW  -0.13 ± 1
55. LFRGFWSERSTVSMLFRSRR  -0.124 ± 0.83
56. KYKFVRANLILFGMVRG  -0.115 ± 0.25
57. LGNLM  -0.109 ± 0.95
58. LHMLKMICKVVNRVSYS  -0.098 ± 0.23
59. LKSLLNSSGVTLGEVLRMGV  -0.091 ± 0.45
60. KYDRNFNTRWGTKDVWTLAD  -0.065 ± 0.57
61. LCLDKQSSCGSMMSGIYDLM  -0.064 ± 0.28
62. LDVLWTGSRSAAA  -0.05 ± 0.38
63. LLDLDVTLIRNHWWFKSLLA  -0.047 ± 0.41
64. LFQCASWM  -0.024 ± 0.29
65. LKIKGGWVFVTSIW  -0.008 ± 0.35
66. LCMLWLKVKRHRDMRSIGIW  -0.003 ± 0.42
67. LISHPFDPLIKVGDIQMYSF  0.012 ± 0.61
68. LCGTSGCSIRNLV  0.026 ± 0.46
69. LHTMCGK  0.03 ± 0.97
70. KVLSIRWECPLECFALQSYV  0.042 ± 0.32
71. LAGMTSKHFTLRMMSHLDSY  0.043 ± 1
72. LFIFFKV  0.049 ± 0.51
73. LCPGNMLLLITDQYSNWEEI  0.068 ± 0.3
74. LFTIMMQPMGCHPCRPLASQ  0.082 ± 0.52
75. LKNSRYSKLFIESMTWWLVY  0.087 ± 0.16
76. LLDMNANECYLPIWWQSEVT  0.092 ± 0.96
77. LCSLVFTIRRTPPWVQSMLR  0.096 ± 0.8
78. LCSWADLDNKDLKSPR  0.102 ± 0.43
79. LIVMVKV  0.111 ± 0.33
80. LFNMFDQITCIVDSDNYRHA  0.116 ± 0.25
81. LAPISSASLQTFPVAIFRFR  0.122 ± 0.43
82. LMASDVT  0.127 ± 0.43
83. LLMYLLHSCYNVMHCLCLNF  0.128 ± 0.21
84. LCARFWDCRFKVQ  0.142 ± 1.4
85. LLNLHGSLMYLPSDLLGSHS  0.156 ± 0.56
86. LLQNNCHLYYCLNGLVFRVR  0.162 ± 0.32
87. LDIVWVDSVIVISLMMLTYC  0.199 ± 0.39
88. LDEYINNEDSMFLCGILLSS  0.2 ± 0.3
89. LFLGLPELVQNSLDMLVSLW  0.217 ± 0.31
90. LGDTVCVRYCR  0.223 ± 0.37
91. LILLLFEGFLLP  0.246 ± 0.63
92. LLCFIIILCSRELNVDA  0.279 ± 1.2
93. LLALCCDSLRCYR  0.282 ± 1.2
94. KVLLIRWDLLC  0.291 ± 0.46
95. LISRIS  0.303 ± 1
96. LKELYG  0.303 ± 0.65
97. LKRVQCNSDRAMWCVALVLT  0.314 ± 0.59
98. LFFQSDMFGVFCISYTTGVS  0.323 ± 0.32
99. LLFSKRVLVSWGFDRGGSEE  0.336 ± 0.57
100. LLSPLTRLYFRKFFSVGKAW  0.353 ± 1.2
101. LCVEVS  0.369 ± 0.42
102. LNGNLVTMEGVLINNSFRVT  0.394 ± 0.24
103. LFRLIAFWDWLYSWNRFFGW  0.481 ± 0.43
104. LFGTS  0.501 ± 0.51
105. LGVAFQRYVCICEVVSLSRG  0.523 ± 0.32
106. LAMLSNGSFNGLFLLWSRCH  0.525 ± 0.35
107. LDRFCYLVYRRRCGYSRWQM  0.527 ± 0.39
108. LEYYLVWYNVYL  0.534 ± 0.19
109. LAHLCINIVSKCSNSWTIGT  0.55 ± 0.57
110. LEAMPMCGEELRSLYTMVNV  0.552 ± 0.42
111. LAFTCFH  0.568 ± 0.28
112. KYGEVLLVTYTNP  0.577 ± 0.53
113. LEDNMEFDFKSRKDSNLCNG  0.611 ± 0.34
114. LGISPVSTGKKVNEDVYSGF  0.618 ± 0.79
115. LLVSGVRSRKTQRWSFRACS  0.634 ± 0.7
116. LDFRGMALENKVLDFRVCSV  0.658 ± 0.3
117. LFYSNMIVTVSRSVVRMRGA  0.659 ± 0.79
118. KVLITCCGPKWSCSLAPDEL  0.668 ± 0.58
119. LITMGMTRIYILMISDYLKF  0.701 ± 0.51
120. LALVRVIGDKNRWWRILSVW  0.708 ± 0.58
121. KVLSYWDVSWGMASRFVSCY  0.724 ± 0.49
122. LDTRSRSYVWSDLLRKAKAK  0.795 ± 0.6
123. LLVVVTLAI  0.89 ± 0.51
124. LMDAEFIMVFTL  0.918 ± 0.2
125. LLLVCMHGSFAMYMPLNNRW  0.922 ± 0.93
126. LGCYTLESLGEYDNSNNWLL  0.932 ± 0.69
127. LFNKNGYNSETRFLFKLGFD  1.02 ± 0.56
128. LCKIKESNDLFSARSIVAHQ  1.06 ± 0.59
129. LDVFICTADHTVRYLHHTAV  1.08 ± 0.66
130. LAWYFTPFVDHS  1.13 ± 0.84
131. LLKVQGF  1.13 ± 0.51
132. LFLWDVFGQLAFVRVGTICW  1.14 ± 0.56
133. LMRHMFAWVDFIFSGSTQAC  1.14 ± 0.97
134. LLALYCNDPKLEDSTLREFN  1.15 ± 0.71
135. LHRRNSCSIYRLLGFCLLPI  1.25 ± 0.6
136. LMTLLSSLSPAQSSLPT  1.27 ± 0.8
137. KVLNILYWGRTDVG  1.41 ± 0.33
138. LIFLKLSSIRYFLMGHY  1.43 ± 0.25
139. KWNLGYIYMYRATIK  1.44 ± 0.84
140. LDRVSWSDRKSNGQ  1.44 ± 0.41
141. LFMLSIHFGVHILSRLW  1.57 ± 0.16
142. LANLAVHLLGQGETCIQMFL  1.76 ± 0.4
143. LIGFSRVSSGFSPFTPAHCR  2.04 ± 0.14
144. LGFACLSIILSRKSKMWDML  2.13 ± 0.11
145. LILRVSFN  2.28 ± 0.16
146. LGNCTGRRHV  2.42 ± 0.36
147. LLWTGY  2.43 ± 0.099
148. LFNWVTSCSGTINGWKIKRH  3.08 ± 0.12
149. LCDDHRPELCVYIVWTVVGE  3.19 ± 0.22
150. KVISFYS  3.21 ± 0.083
151. LKSRGWYCFSNVTMYDLRME  3.42 ± 0.067
152. LANIYSSNVDISFFDPYCST  4.35 ± 0.085
153. LLSRFRNCNKFDVRQSLRQN  5.328 ± 0.051
154. LLAMFKFDNPHILFCSSILL  5.62 ± 0.078
155. LLGNSLAVSFSFNSLVNHYS  6.02 ± 0.063
156. LFFQANKLLVIYNCRIYTTF  6.32 ± 0.07
157. LFMNCLILRMFTCAFHNSSE  6.39 ± 0.078
158. LCQSYGCFVPYYLYDFHRVV  6.521 ± 0.059
159. LFTTFNNLISVFTVVLNSNQ  6.79 ± 0.076
160. LIPCGPLFLFMQTNIDRANM  7.845 ± 0.044
161. LLNLYWFLSVPDTINLSHER  8.087 ± 0.05

For KVLNVCRL, the amyloid nucleation score was “inactive”.
With LCWFWGYVISYREMIYAESV the amyloid nucleation score was “inactive”.
With LDRLMESGDFGWKYIMG the amyloid nucleation score was “inactive”.
With LDVNLGYCHVVYWTIVKVRL the amyloid nucleation score was “inactive”.
In the case of LEYENCHCIILYLKHAQYLL, the amyloid nucleation score is reported as “inactive”.
For LFKFYCKTYHTPLSLIYPFW, the amyloid nucleation score was “inactive”.
For LFSWVCIFECLPFKNWSQTV, the amyloid nucleation score was “inactive”.
With LHSNGSD the amyloid nucleation score was “inactive”.
For LIGIVKGTTVSRMGNTVIDR, the amyloid nucleation score was “inactive”.
For LMSLEHELRVKS, the amyloid nucleation score was “inactive”.
